Laboratory results from the RNAGym collection of RNA variant scans (doi:10.7554/elife.80360).

B1: HDV Ribozyme (parent)
chain: GGCCGGCAUGGUCCCAGCCUCCUCGCUGGCGCCGGCUGGGCAACAUUCCGAGGGGACCGUCCCCUCGGUAAUGGCGAAUGGGACCCA

Variants of: B1
Assay: self-cleavage, relative activity (ratio to wild type); higher = more cleavage; co-transcriptional

Going from GGCCGGCAUGGUCCCAGCCUCCUCGCUGGCGCCGGCUGGGCAACAUACCGAGGGGACCGUCCCCUCGGUAAUGGCGAAUGGGACCCU to GGCCGGCAUGGUCCCAGCCUCCUCGCUGGCGCCGGCUGGGCAACAUACCGAGGGGACCGUCCCCUCGGUAAUGGCGAAUGGGACCCG, the self-cleavage falls from 1.03 to 0.96.

First: GGCCGGCAUGGUCCCAGCCUCCUCGCUGGCGCCGGCUGGGCAACAUACCGAGGGGACCGUCCCCUCGGUAAUGGCGAAUGGGACCCC
Second: GGCCGGCAUGGUCCCAGCCUCCUCGCUGGCGCCGGCUGGGCAACAUACCGAGGGGACCAUCCCCUCGGUAAUGGCGAAUGGGACCCA
The self-cleavage of the first is higher: 0.95 for the first, 0.746 for the second.

Going from GGCCGGCAUGGUCCCAGCCUCCUCGCUGGCGCCGGCUGGGCAACAGUCCGAGGGGACCGUCCCCUCGGUAACGGCGAAUGGGACCCA to GGCCGGCAUGGUCCCAGCCUCCUCGCUGGCGCCGGCUGGGCAACAUACCGAGGGGACCGUCCCCUCGGUAAUGGCCAAUGGGACCCA, the self-cleavage rises from 0.287 to 0.812.

Going from GGCCGGCAUGGUCCCAGCCUCCUCGCUGGCGCCGGCUGGGCAACAUACCGAGGGGACCGUCCCCUGGGUAAUGGCGAAUGGGACCCA to GGCCGGCAUGGUCCCAGCCUCCUCGCUGGCGCCGGCUGGGCAACAUACCGAGGGGACCGUCCCCUAGGUAAUGGCGAAUGGGACCCA, the self-cleavage falls from 0.982 to 0.847.

Going from GGCCGGCAUGGUCCCAGCCUCCUCGCUGGCGCCGGCUGGGCAACAUACCGAGGGGACCGUCCCCUCGGUAAUGACGAAUGGGACCCA to GGCCGGCAUGGUCCCAGCCUCCUCGCUGGCGCCGGCUGGGCAACAUACCGAGGGGACCGUCCCCUCGGUAAUGUCGAAUGGGACCCA, the self-cleavage falls from 0.688 to 0.447.

Going from GGCCGGCAUGGUCCCAGCCUCCUCGCUGGCGCCGGCUGGGCAACAGUCCGAGGGGACCGUCCCCUCGGUAAUGGCGAAAGGGACCCA to GGCCGGCAUGGUCCCAGCCUCCUCGCUGGCGCCGGCUGGGCAACAUACCGAGGGGACCGUCACCUCGGUAAUGGCGAAUGGGACCCA, the self-cleavage rises from 0.356 to 1.01.

Compared with GGCCGGCAUGGUCCCAGCCUCCUCGCUGGCGCCGGCUGGGCAACAUACCAAGGGGACCGUCCCCUCGGUAAUGGCGAAUGGGACCCA, GGCCGGCAUGGUCCCAGCCUCCUCGCUGGCGCCGGCUGGGCAACAUACCGAGGGGACAGUCCCCUCGGUAAUGGCGAAUGGGACCCA is higher in self-cleavage: 0.876 for the first, 0.957 for the second.

First: GGCCGGCAUGGUCCCAGCCUCCUCGCUGGCGCCGGCUGGGCAACAUACCGAGGGGACUGUCCCCUCGGUAAUGGCGAAUGGGACCCA
Second: GGCCGGCAUGGUCCCAGCCUCCUCGCUGGCGCCGGCUGGGCAACAUACCGAGGGGACGGUCCCCUCGGUAAUGGCGAAUGGGACCCA
The self-cleavage of the first is higher: 1.03 for the first, 0.855 for the second.

Compared with GGCCGGCAUGGUCCCAGCCUCCUCGCUGGCGCCGGCUGGGCAACAUACCGAGGGGACCGUCCCCUCGGUAAUGGCGAAUCGGACCCA, GGCCGGCAUGGUCCCAGCCUCCUCGCUGGCGCCGGCUGGGCAACAUACCGAGGGUACCGUCCCCUCGGUAAUGGCGAAUGGGACCCA is higher in self-cleavage: 0.138 for the first, 1.01 for the second.

Compared with GGCCGGCAUGGUCCCAGCCUCCUCGCUGGCGCCGGCUGGGCAACAUACCGAGGGAACCGUCCCCUCGGUAAUGGCGAAUGGGACCCA, GGCCGGCAUGGUCCCAGCCUCCUCGCUGGCGCCGGCUGGGCAACAUACCGAGGGGACCGUCCCCUCGGUAAUAGCGAAUGGGACCCA is lower in self-cleavage: 0.927 for the first, 0.447 for the second.

Compared with GGCCGGCAUGGUCCCAGCCUCCUCGCUGGCGCCGGCUGGGCAACAUACCGAGGGGACCGUCCCCUCGGUAAUCGCGAAUGGGACCCA, GGCCGGCAUGGUCCCAGCCUCCUCGCUGGCGCCGGCUGGGCAACAUACCGAGGGGACCGUCCCCUCGGUAAUUGCGAAUGGGACCCA is lower in self-cleavage: 0.665 for the first, 0.142 for the second.

Compared with GGCCGGCAUGGUCCCAGCCUCCUCGCUGGCGCCGGCUGGGCAACAGUCCGAGGGGACCGUCCCCACGGUAAUGGCGAAUGGGACCCA, GGCCGGCAUGGUCCCAGCCUCCUCGCUGGCGCCGGCUGGGCAACAGUCCGAGGGGACCGUCCCCGCGGUAAUGGCGAAUGGGACCCA is higher in self-cleavage: 0.582 for the first, 0.712 for the second.

First: GGCCGGCAUGGUCCCAGCCUCCUCGCUGGCGCCGGCUGGGCAACAGUCCGAGGGGACCGUCCCCUCGGAAAUGGCGAAUGGGACCCA
Second: GGCCGGCAUGGUCCCAGCCUCCUCGCUGGCGCCGGCUGGGCAACAGUCCGAGGGGACCGUCCCCUCGGGAAUGGCGAAUGGGACCCA
The self-cleavage of the first is lower: 0.665 for the first, 0.776 for the second.

First: GGCCGGCAUGGUCCCAGCCUCCUCGCUGGCGCCGGCUGGGCAACAUACCGAGGGGACCGUCCCCUCGGUAAUGGCGAAUGGGACUCA
Second: GGCCGGCAUGGUCCCAGCCUCCUCGCUGGCGCCGGCUGGGCAACAGUCCGAGGGGACCGUCCCCUCGGUAAUGGCAAAUGGGACCCA
The self-cleavage of the first is higher: 1.03 for the first, 0.911 for the second.

Compared with GGCCGGCAUGGUCCCAGCCUCCUCGCUGGCGCCGGCUGGGCAACAGUCCGAGGGGACCGUCCCCUCGGUAAUGGCCAAUGGGACCCA, GGCCGGCAUGGUCCCAGCCUCCUCGCUGGCGCCGGCUGGGCAACAUACCGAGGGGAACGUCCCCUCGGUAAUGGCGAAUGGGACCCA is higher in self-cleavage: 0.95 for the first, 1.02 for the second.

Compared with GGCCGGCAUGGUCCCAGCCUCCUCGCUGGCGCCGGCUGGGCAACAUAGCGAGGGGACCGUCCCCUCGGUAAUGGCGAAUGGGACCCA, GGCCGGCAUGGUCCCAGCCUCCUCGCUGGCGCCGGCUGGGCAACAUACCGAGGGGCCCGUCCCCUCGGUAAUGGCGAAUGGGACCCA is higher in self-cleavage: 0.598 for the first, 0.782 for the second.

Going from GGCCGGCAUGGUCCCAGCCUCCUCGCUGGCGCCGGCUGGGCAACAUACCGAGGGGUCCGUCCCCUCGGUAAUGGCGAAUGGGACCCA to GGCCGGCAUGGUCCCAGCCUCCUCGCUGGCGCCGGCUGGGCAACAUACCGAGGGGACCGUGCCCUCGGUAAUGGCGAAUGGGACCCA, the self-cleavage falls from 0.856 to 0.639.

Going from GGCCGGCAUGGUCCCAGCCUCCUCGCUGGCGCCGGCUGGGCAACAGUCCGAGGGGACCGUCCCCUCGGUAAUGGCGAAUCGGACCCA to GGCCGGCAUGGUCCCAGCCUCCUCGCUGGCGCCGGCUGGGCAACAGUCCGAGGGGACCGUCCCCUCGGUAAUGGCGAAUUGGACCCA, the self-cleavage rises from 0.185 to 0.202.

First: GGCCGGCAUGGUCCCAGCCUCCUCGCUGGCGCCGGCUGGGCAACAUACCGAGGGGACCGUCCCCUCGGUAAUGGCGACUGGGACCCA
Second: GGCCGGCAUGGUCCCAGCCUCCUCGCUGGCGCCGGCUGGGCAACAUACCGAGGGGACCGUCCCCUCUGUAAUGGCGAAUGGGACCCA
The self-cleavage of the first is lower: 0.147 for the first, 1.14 for the second.

Compared with GGCCGGCAUGGUCCCAGCCUCCUCGCUGGCGCCGGCUGGGCAACAUACCGAGGGGACCGUCCCCUCAGUAAUGGCGAAUGGGACCCA, GGCCGGCAUGGUCCCAGCCUCCUCGCUGGCGCCGGCUGGGCAACAUACCGAGGGGACCGUCCCCUCGGUAAUGGCGAAUGGGAACCA is lower in self-cleavage: 0.897 for the first, 0.808 for the second.

Going from GGCCGGCAUGGUCCCAGCCUCCUCGCUGGCGCCGGCUGGGCAACAGUCCGAGGGGACCGACCCCUCGGUAAUGGCGAAUGGGACCCA to GGCCGGCAUGGUCCCAGCCUCCUCGCUGGCGCCGGCUGGGCAACAGUCCGAGGGGACCGGCCCCUCGGUAAUGGCGAAUGGGACCCA, the self-cleavage falls from 0.453 to 0.415.

Compared with GGCCGGCAUGGUCCCAGCCUCCUCGCUGGCGCCGGCUGGGCAACAGUCCGAGGGGACCGUCCCCUCGGUAAUGGCGAAUGGCACCCA, GGCCGGCAUGGUCCCAGCCUCCUCGCUGGCGCCGGCUGGGCAACAGUCCGAGGGGACCGUCCCCUCGGUAAUGGCGAAUGGUACCCA is higher in self-cleavage: 0.158 for the first, 0.229 for the second.

First: GGCCGGCAUGGUCCCAGCCUCCUCGCUGGCGCCGGCUGGGCAACAUACCGAGGGGACCGUCCCCUCGGUGAUGGCGAAUGGGACCCA
Second: GGCCGGCAUGGUCCCAGCCUCCUCGCUGGCGCCGGCUGGGCAACAUACCGAGGGGACCGUCCCCUCGGUCAUGGCGAAUGGGACCCA
The self-cleavage of the first is lower: 0.831 for the first, 0.957 for the second.

Compared with GGCCGGCAUGGUCCCAGCCUCCUCGCUGGCGCCGGCUGGGCAACAUACCGAGGGGACCGUCCCCUCGGUUAUGGCGAAUGGGACCCA, GGCCGGCAUGGUCCCAGCCUCCUCGCUGGCGCCGGCUGGGCAACAGUCCGAGGGGACCGUCCCCUCGGUAAUGACGAAUGGGACCCA is lower in self-cleavage: 0.697 for the first, 0.365 for the second.

First: GGCCGGCAUGGUCCCAGCCUCCUCGCUGGCGCCGGCUGGGCAACAUACCGAGGGGACCGUCCCCUCGGUAAUGGCGAAUGGGACCCA
Second: GGCCGGCAUGGUCCCAGCCUCCUCGCUGGCGCCGGCUGGGCAACAUACCGAGGUGACCGUCCCCUCGGUAAUGGCGAAUGGGACCCA
The self-cleavage of the first is higher: 0.958 for the first, 0.91 for the second.

First: GGCCGGCAUGGUCCCAGCCUCCUCGCUGGCGCCGGCUGGGCAACAUACCGAUGGGACCGUCCCCUCGGUAAUGGCGAAUGGGACCCA
Second: GGCCGGCAUGGUCCCAGCCUCCUCGCUGGCGCCGGCUGGGCAACAUACCGAAGGGACCGUCCCCUCGGUAAUGGCGAAUGGGACCCA
The self-cleavage of the first is lower: 0.845 for the first, 0.975 for the second.

First: GGCCGGCAUGGUCCCAGCCUCCUCGCUGGCGCCGGCUGGGCAACAUACCGAGGGGACCGUCCCCUCGGUAAUGGCGAAUGGGCCCCA
Second: GGCCGGCAUGGUCCCAGCCUCCUCGCUGGCGCCGGCUGGGCAACAUACCGAGGGGACCGUCCCCUCGGUAAUGGCGAAUGGGUCCCA
The self-cleavage of the first is higher: 0.391 for the first, 0.287 for the second.

Going from GGCCGGCAUGGUCCCAGCCUCCUCGCUGGCGCCGGCUGGGCAACAGUCCGAGGGGACCGUCCCCUCGGUAAUGGCGAAUGCGACCCA to GGCCGGCAUGGUCCCAGCCUCCUCGCUGGCGCCGGCUGGGCAACAGUCCGAGGGGACCGUCCCCUCGGUAAUGGCGAAUGAGACCCA, the self-cleavage rises from 0.175 to 0.222.

Compared with GGCCGGCAUGGUCCCAGCCUCCUCGCUGGCGCCGGCUGGGCAACAUACCGAGGGGACCGUCCCGUCGGUAAUGGCGAAUGGGACCCA, GGCCGGCAUGGUCCCAGCCUCCUCGCUGGCGCCGGCUGGGCAACAUACCGAGGGGACCGUCCCAUCGGUAAUGGCGAAUGGGACCCA is higher in self-cleavage: 0.978 for the first, 1.08 for the second.

Going from GGCCGGCAUGGUCCCAGCCUCCUCGCUGGCGCCGGCUGGGCAACAUACGGAGGGGACCGUCCCCUCGGUAAUGGCGAAUGGGACCCA to GGCCGGCAUGGUCCCAGCCUCCUCGCUGGCGCCGGCUGGGCAACAUACCGUGGGGACCGUCCCCUCGGUAAUGGCGAAUGGGACCCA, the self-cleavage falls from 1.42 to 1.03.

Going from GGCCGGCAUGGUCCCAGCCUCCUCGCUGGCGCCGGCUGGGCAACAUACCGCGGGGACCGUCCCCUCGGUAAUGGCGAAUGGGACCCA to GGCCGGCAUGGUCCCAGCCUCCUCGCUGGCGCCGGCUGGGCAACAUACCGGGGGGACCGUCCCCUCGGUAAUGGCGAAUGGGACCCA, the self-cleavage falls from 1.13 to 0.902.

Going from GGCCGGCAUGGUCCCAGCCUCCUCGCUGGCGCCGGCUGGGCAACAGACCGAGGGGACCGUCCCCUCGGUAAUGGCGAAUGGGACCCA to GGCCGGCAUGGUCCCAGCCUCCUCGCUGGCGCCGGCUGGGCAACAGCCCGAGGGGACCGUCCCCUCGGUAAUGGCGAAUGGGACCCA, the self-cleavage falls from 0.8 to 0.623.
